Assay results from the DeepSol protein solubility set.

Assay: soluble on expression in E. coli; label from the status in PepcDB or PDB records

In the case of “NGVWVIGEQREGKINPVTIELIGEGRKLADQLGKELAVVIAGYEVEKEVKELLHYSVDKVYYINDPLLKDFTTDGYAISIANLIERKKPEVVLVGATSIGRDIAPRIAGKVGTGLTADCTKLEIDSTDNKLLQTRPAFGGNLMATIVCPKNRPQMSTVRPGVMAKAVRNESETGILEVVTPELTEKMIRTRLVEILPQEKKSVN”, the “soluble on expression in E. coli” value is reported as “soluble”.
In the case of “MSDHFVSERQALILAQLRQSGRVLAQDLAQNFGVSEDTVRRDLREMAARGECLRVYGGALLSDSTTVPLKTRITEDADRKATLARAVVPLIEPGMVVFIDAGSTNLAIARAIPAGLNLTVVTNTPAIAADLTGRADIDLVLIGGKVDPAVGAAIDAMALRQLELMRPDLCVLGVCGVAAETGLSADVFEDAVFKRLACSASQRVIAAITTEKLGHKAAFHVHDFSPPLCLVLERDADRALVESLSAQGVDVYCGEDDAAPFSHGQVLEHHHHHH”, the “soluble on expression in E. coli” value is reported as “soluble”.
For “MRMTINRYNFQALWNRMCMILTSKGGELKFGEIIPDTKRSEMKIGKTLYIVNSRYNGKENIIDKFKRLITRKLESQSKGN”, the “soluble on expression in E. coli” value was “not soluble”.
In the case of “MGHHHHHHSHMEMASADSDEDPRHKVGKTPHLTLPADLQTLHLNRPTLSPESKLEWNNDIPEVNHLNSEHWRKTEKWTGHEETNHLETDFSGDGMTELELGPSPRLQPIRRHPKELPQYGGPGKDIFEDQLYLPVHSDGISVHQMFTMATAEHRSNSSIAGKMLTKVEKNHEKEKSQHLEGSASSSLSSD”, the “soluble on expression in E. coli” value is reported as “not soluble”.
For “MGSEILVGIGEFRVAKGAVLKTIGLGSCVGIALYDPKLRLGGLAHVMLPQSGNGTKRSAKYADHAVEMMTEAMERLGSDRKRIVAKMAGGAQIFKHMTMDMLRIGDRNAEAIRTILRDYGIRIVSEDLGGDEGRTVYFFTNDGRMLVKYSRGGELWI”, the “soluble on expression in E. coli” value was “soluble”.
In the case of “MLSLTAHLVLISTIIVKCSAFSKKPSERAKPAAVKKAVEDKQPVKVTAFEQASLNEDKAEAMSNIEPSPKISNSTVPTAPTPKKEKKVVATTKKTERSVAQGPPLVSEHIKDEKKMPSVHKPIRKGSIYANELLTEKPLTDTEPELHPDNHVVKAKSPKPVARTPTARHRNALKPGKINDKSDDTLHDAPSIQKVGGPSYEDAASVNEKEKDVNPK”, the “soluble on expression in E. coli” value is reported as “not soluble”.
For “AQSVPPGDINTQPSQKIVFNAPYDDKHTYHIKITNAGGRRIGWAIKTTNMRRLSVDPPCGVLDPKEKVLMAVSCDTFNAATERLNNDRITIEWTNTPDGAAKQFRREWFQGDGMVRRKNLPIEYNL”, the “soluble on expression in E. coli” value was “soluble”.
With “MRVVAIGVGGAGGRIVDALHEDDSTREASYLAGGSVLETDRGALAALDAVSEEDRHHFGHSGFGGDADSPRERIEALAEDDHVEMRRAVDSAITSDAAAIIVIAGVGGATGSVIAPKLTDALQRIYDRPVYAVSVLPATHEEVPPENPARAIAAFESAANAQLVFDNDAWVDDRNDVEDVTDGLNAELAMRLGALFSAGEAVTAESVGQRVVDASEVISTLDEGGLATIGFARQPLGTDGDDGSLLDRARELVGMDETTVDEVESIKAVETTLRQATNGRLTFDCPRDAARSGLLVVSGPPEWLHQTAVSDGQSWLADEIGSVQLRTGDNPMPGGDELTILVLLGGIRGAPRIKEIQAATDLEHHHHHH” the “soluble on expression in E. coli” value was “soluble”.
For “MAHLVITIGCEYGAKGNQIGKKVAKDLGIKFYDRDTVDEIIKEVGIPKDIMEKVEEGITIAGKGAEGDVRGSFSKYADLTERAIHVQKTIIRKLSDRESCVIIGRSADYILKEHKPILRIFIYSPDEVRIENVMKSHNLSEDDAKLFITEKDKRYHKRHMALTGSNRGDRHNRDMLIDSSLLGVDGTAELIESLARKVVENESKTEAGGDK”, the “soluble on expression in E. coli” value was “not soluble”.
In the case of “MGSDKIHHHHHHMTQVDILILSNGPGEVTTWVRPVVRALRQQFGDDRNQVRISVVLSPCSNASGKEAAIALSYPEVDRVQAAEHFWQFLLWGKTIDNWDWRSRGVVVFLGGDQIFPVVIGKKLGYRTVVYAEWEARWHNWIDRFGVMKPEVAARAPHKYAHKFTVVGDLMVEANSHSSLVIGDLSNDKELMTNDIDASTTSHSVGQKTELIGLLPGSKAAKLAQGVPLCLSIAEYVHAKRPQTKFVIPVAPTLDLQTLASFADPQRNSIAEIFGFGGAALIVPEDDRDKALLKTAKGVTVELWQENPAYHLLSQCCICLTTVGANTAELGALGVPMIVLLPTQQLDAMRAWDGLPGLLANLPGVGTPFANTINWLFLRFVRRKGLLAWPNIWAQEEIVPELMGKLQPPEIGEMVVELLAHPEKLADIRAKLRNIRGESGAALKIAQIVCEEMGK”, the “soluble on expression in E. coli” value is reported as “not soluble”.
For “AHHHHHHGSKVIASAPAKVILFGEHSVVYGKPAIAAAIDLRTFVEAELIREKKIRIEAHDIKVPGLTVSFSENEIYFETDYGKAAEVLSYVREAINLVLEEADKKNVGIKVSITSQIPVGAGLGSSAAVAVATIGAVSKLLGLELSKEEIAKMGHKTELLVQGASSGIDPTVSAIGGFIFYEKGKFEHLPFMELPIVVGYTGSSGPTKELVAMVRKRYEEMPELIVPILEAMGKVVEKAKDVILSNVDKEEKFERLGVLMNINHGLLDALGVSTKKLSELVYAARVAGALGAKITGAGGGGCMYALAPNKQREVATAIRIAGGTPMITEISREGLKIEEVIK”, the “soluble on expression in E. coli” value was “not soluble”.
With “MLSKTVFDASQERMEVIFSEFDNIIVSFSGGKDSAVMLHLMIDYIRKNNIQKKIYVYHLDYEGQYSATSDFVAEMLTSNLDIIEPLWCCLPIAAQSAVSMYTDHWIPWEKSKQDIWVREMPDYPSVINEDNAPFDFDFHTIWDYEFNKKLIHWLHTKNKAEKTIALIGIRQQESLNRYNAIHKKERMYKNYNWTTEISKNIYNAYPIHDWLVEDIWTANAKFDWPYNKIYDLFYQAGLTLNDMRVASPFNDSATESLKLYRVIEPALWSKLVGRVNGANFTAIYGGTSAMAWKEINLPPNHTWKSYLEFLLTTLPSYTRERYLKKFKTSINYWTEKGGALKVETVEELKNLNVQADFLGKPQNKRTYSNPMEIVRFKEYPDDLKIKEFASVPTYKRMCIAILKNDYTCKYMGFGQTKLELEKRKHALEKYNNIL” the “soluble on expression in E. coli” value was “not soluble”.
In the case of “MGSDKIHHHHHHMSRGIYIVANDRVIDNAIALLNSIRYYDPEVTIYLIPFNENYHKVAEQLSTLHKVQIFPDLELIDKFTKRIGEIFDRDFLALPNKMRKLVAWFGPLDEFIYIDTDIVVFEKIADNLDKLSEVDFFCCDYHYANDKLRNIFSPFVKEQQLFSDAQLQDVFNSGFWASRKGVITEEQMDEALRECAAHREYFDFSEGVTDQPILNYLVLKLIDKRGNLVKIPGGGPGSWAGSQSFQQQDYALYDRGQRLKYLHWAGTRMKTGSPYWQLWEHYRYLHEGKFAFISKLTRRLFPFVAART”, the “soluble on expression in E. coli” value is reported as “not soluble”.
For “MGHHHHHHSHATGNVCIEEIDVDGKFIRLKNTSEQDQPMGGWEMIRKIGDTSVSYKYTSRYVLKAGQTVTIWAANAGVTASPPTDLIWKNQNSWGTGEDVKVILKNSQGEEVAQRSTVFKT”, the “soluble on expression in E. coli” value was “not soluble”.
For “MVLKGDAKRIVAMSSTHIAMLDAIGEVRCITGVSGIDYISNPDIQARRDSIGDVGYEGNINYELLLSLDPDLVLLYGVNGASAMESKLEELDIPFMYVGDYLEESPLGKAEWMVVLSEVTGKREKGEKAFAAIPVRYNALKKKVADSTLGLEHHHHHH”, the “soluble on expression in E. coli” value was “not soluble”.
With “MRVDIWSDVVCPFCYIGKKRLEHVAAEAGIELDVHWHSFELDPDAPTSHDTSNTERLAKKYGRTFEEMQEMQQNIASMAAQEGIDFQWQKANSGNSFNAHRIIHLAQSKGLGNEAEEAFFHAYMTEGLAIGEREVVEEIASRIGLDHAEVEFVLDSNELSDFVRHDEKIAHEQLNISGVPFFVFDQKLALSGAQPKEVFLQVLQKALTQRENDAVAEASSDAVCSDDSCDIPQKS” the “soluble on expression in E. coli” value was “not soluble”.
For “MGSDKIHHHHHHMCRLLAYLGSPVSLEYLLYKPEHSLIVQSYQPREMTSGVVNADGFGVGWYHSQKDTEPFTYKNTLPIWNDINLPSLSRYVESKCILAYVRSATAGQALDFANCQPFHYKQSLFIHNGYIENFRKTLHRKLRSTLTPDFYEHINGSTDSEHIFALLLSQIQSNKHRSVESVLRNTLLMLWEMAKRHQVNASANVVFSDGHRLIASRFASSSSPPSLYWLKDDLTFPNSVIIASEPLFAGNWTACPENSIISVGEDCDIKIESI”, the “soluble on expression in E. coli” value was “not soluble”.
For “MAHHHHHHMVFYSFVLVMKPRQRRFTSQALREIGVAVYSNGGLIRSITNEGIMRPYSRFRDADNTPLTYARYIILQLDMGEEEMGKVDKIIREHQDVLMALKLNNLERPVGIRSGNKELQAAYFPLDTFTRLEEEINWSPQTSADIYTQLEMNWKEFSRTRWSSFLRN”, the “soluble on expression in E. coli” value was “not soluble”.
With “MAHHHHHHMRKLSGDLKATAATPLTPPVTTPQPQPDGTDRSKSAGGQATYEPLHVLGQGSFGVVMMARVRETGKMVAVKKVLFDRRLHHRELLLLRDHLGPGTHAGQAGTGNHDDPGKEAGKTDPSNTNNSAGEVGFTPLGDLASVPTTVSYHPCIVRLLDHFTVAGPNGEQYLYIVMDYLPLDIHHLHHIYLRQKQQRMPFILVKVIMFQLARALMFLHLRGICHRDVKPSNLLIDPETGVLKLCDFGSAKVMQPQGVNGPIEKNVSYICSRYYRAPELLLGSLYYHFHVDMWAAGCVLAELLCGEVLFKGASTVDQMAEIFKVLGAPSRQELLALNPQGAEALFHATGAGLEVTPTSAANTATSSDYLQRYHALRIKALQWQNVLPPNTPPAAVSLVGELLRYTPAERLSAAEVLEHSFFDDIFAEDASLPNGAPLPVSMFEVTAEEMEALPPWLLERMASAEASARRRHVSAGGSGKVVPPQKRQEQEGRK” the “soluble on expression in E. coli” value was “not soluble”.
In the case of “MSLRSTLAGTVRTQQGEIYLNGDADWSQIENWRARVTAKGSKVRITVPPMVRMDVSPDVVFEATPNLFTLDGRVDVPWARIVVHDLPESAVGVSSDVVMLNDNLQPEEPKTASIPINSNLIVHVGNNVRIDAFGLKARLTGDLNVVQDKQGLGLNGQINIPEGRFHAYGQDLIVRKGELLFSGPPDQPYLNIEAIRNPDATEDDVIAGVRVTGLADEPKAEIFSDPAMSQQAALSYLLRGQGLESDQSDSAAMTSMLIGLGVAQSGQIVGKIGETFGVSNLALDTQGVGDSSQVVVSGYVLPGLQVKYGVGIFDSIATLTLRYRLMPKLYLEAVSGVDQALDLLYQFEFEGHHHHHH”, the “soluble on expression in E. coli” value is reported as “soluble”.
With “MSLAQGRQVIGLDIGTTSTIAILVRLPDTVVAVASRPTTLSSPHPGWAEEDPAQWWDNARAVLAELKTTAGESDWRPGGICVTGMLPAVVLLDDRGAVLRPSIQQSDGRCGDEVAELRAEVDSEAFLARTGNGVTQQLVTAKLRWIERHEPAVFGAIATVCGSYDYINMLLTGERVVDRNWALEGGFIDLASGTVEADLVALAHIPPSAVPPAHPTHRVLGAVTAEAAALTGLPTGLPVYGGAADHIASALAAGITRPGDVLLKFGGAGDIIVASATAKSDPRLYLDYHLVPGLYAPNGCMAATGSALNWLAKLLAPEAGEAAHAQLDALAAEVPAGADGLVCLPYFLGEKTPIHDPFASGTFTGLSLSHTRGHLWRALLEAVALAFRHHVAVLDDIGHAPQRFFASDGGTRSRVWMGIMADVLQRPVQLLANPLGSAVGAAWVAAIGGGDDLGWDDVTALVRTGEKITPDPAKAEVYDRLYRDFSALYATLHPFFHRSREGHHHHHH” the “soluble on expression in E. coli” value was “soluble”.
In the case of “MVVVRLPKEIEERLTALARKTGRSKSYYVRQALLEYLDDLEDYYLAVERLEERLPGIPLDEVERRLGLSD”, the “soluble on expression in E. coli” value is reported as “soluble”.
With “MSRFDSGLPSVRQVQLLIKDQTPVEIKLLTGDSLFGTIRWQDTDGLGLVDDSERSTIVRLAAIAYITPRR” the “soluble on expression in E. coli” value was “soluble”.
In the case of “MTKRHVSLPADAKDVRRAFVSGVDERLSAAETPDELATAVTGTLADLRGERDAYEAWRDGDDVRPAAAARLATLDPRNASLESEYYAEKDEAAFARSKPLQWLWRQFDTTPLADNVDVALPFRRMLAGHLFAGVGEDVRLFKGITMTYGHNIELGDNAVVHDGVHLDDRGELVVGARASVSNGAHLYTHDHDVVDQTDVTNYRTEIGADARVTQGALVRAGVRVGENALVGSRSVVQGDVPAHHIAVGSPAESVRVKPGWEAVAAPLDAGLEHHHHHH”, the “soluble on expression in E. coli” value is reported as “soluble”.
